US9308238B2, “Compositions and methods for modulating EMT and uses thereof” (Whitehead Institute for Biomedical Research, priority 2010, dated 2016)

Tests used:
Format in all cases: cell-based, human
HTwist cells = experiment: Mammosphere assay, HTwist cells; conditions: for reduction in sphere-forming efficiency, primary mammosphere formation: single vs combined proteins, daily for 5 days (FIG. 10C)
Description: FIGS. 10A-10E. […] (FIG. 10E) Mammosphere Assay: HTwist and MSP were treated daily during mammosphere formation (5 days) with BMP4 (0.5 μg/ml), SB431542 (10 μM) or a combination of both, n(mammospheres)/1000 cells, n=6.
Mammosphere and tumorsphere assay. Assays were performed as previously described with modifications (Dontu et al., 2003): 1000 cells/well were seeded in 96-well ultra-low adhesion plates (Corning) in MEGM medium containing 1.3% methylcellulose (Stem Cell Technologies) supplemented with 20 ng/ml EGF, 10 ng/ml bFGF (both Sigma) and B27 (Gibco). Primary spheres were dissociated by trypsinization and replated for secondary sphere formation after a period of 5-7 days.

[1] = test system: MSP-RAS primary tumorspheres; experiment: Flow cytometry of CD44/CD24 in MSP-RAS primary tumorspheres; conditions: control tumorspheres 6.4%
Description: FIGS. 4A-4G. Autocrine Signaling controls tumorigenicity and metastasis of MSP-RAS cells. (FIG. 4A) Migration assay: RAS-transformed MSP (MSP-RAS) were seeded in Boyden Chamber migration assays and recombinant SFRP1 (1 μg/ml) and BMP4 protein (0.5 μg/ml) were added; *control vs. single treatment, p<1×10^−8, **single vs. double treatment with SFRP1 and BMP4 (S+B), p<1×10^−4, n=3. […] (FIG. 4E) Lung metastasis: fluorescence microscopy images of the major left lung lobe showing GFP-expressing metastatic nodules and quantification of the number of lung surface metastases; *control vs. SFRP1 treatment, p<0.05, **SFRP1 vs. BMP4 or double treatment (S+B), p<0.05, n=5 mice/group. (FIG. 4F) Liver metastasis: fluorescence microscopy images of the liver surface showing GFP-expressing micro-metastatic nodules after implantation of cells as described in (D) and quantification: 5 fields of liver surface were counted per mouse, *control vs. single treatment, p<0.05, **single vs. double treatment (S+B), p<0.05, n=5 mice/group. […]
Fluorescent activated cell sorting (FACS) and flow cytometry. […] Samples were sorted on a BD FACSAria SORP and analyzed on a BD LSRII using BD FACSDiva Software (BD Biosciences).

HMLE-iEMT-a cells [2] = experiment: Boyden chamber migration assay, iEMT-cells; conditions: SFRP1 1 μg/ml/d, BMP4 0.5 μg/ml/d; extent comparable to HTwist and MSP cells
Description: (§1) FIGS. 5A-5H. Concomitant stimulation of Wnt and TGF-beta pathways allows HMLE^24+ cells to enter into a mesenchymal and SC-like state. (FIG. 5A) RT-PCR: N-Cadherin, Zeb1 and Zeb2, L32 was loading control, n=3. Prior RNA isolation, HMLE^24+-shGFP or -shSFRP1 (stable knockdown of SFRP1, FIG. 12A) cells were treated for 3 days with daily doses of indicated factors: anti-DKK1 antibody (10 μg/ml), anti-E-Cadherin antibody (1 μg/ml), TGF-beta 1 (5 ng/ml), Wnt5a (250 ng/ml), (FIG. 5B) Brightfield microscopy: images of control, TGF-beta- and iEMT-cocktail treated HMLE^24+ cells after 14 days of treatment as indicated (see also FIG. 12D). (FIG. 5C) RT-PCR: Zeb1, Zeb2, E-Cadherin and N-Cadherin, L32 was loading control, n=3. After 14 day treatment, cells were expanded in absence of further stimulation for 4 passages. Shown are PBS-treated control HMLE^24+-shGFP and HMLE^24+-shSFRP1 cells, two HMLE^24+-shGFP cultures treated with TGF-beta 1 (TGF-β-a and -b), two HMLE^24+-shSFRP1 cultures treated with the iEMT-cocktail (iEMT-a and -b). […] (FIG. 5G) Lung metastasis: cells expanded for 8 passages after cessation of treatment as described in (C) were transformed with RAS; 1.0×10^5 cells were injected into the mammary fat pads of mice; GFP-labeled metastases on the surface of the lungs were quantified; *control vs. all other groups, p<0.05, n=5 mice/group. […]

HMLE-iEMT-a cells [3] = experiment: Mammosphere assay, iEMT-cells; conditions: SFRP1 1 μg/ml/d, BMP4 0.5 μg/ml/d; extent comparable to HTwist and MSP cells
Description: as §1

Row | Molecule | reduction in sphere-forming efficiency, primary mammosphere formation (HTwist cells) [%] | CD24-positive cells in primary tumorspheres [1] [%] | effect on migration of iEMT-cells (HMLE-iEMT-a cells [2]) | effect on mammosphere formation of iEMT-cells (HMLE-iEMT-a cells [3]) | reduction of primary mammosphere number (HTwist cells; added daily for 5 days (FIG. 3D)) [%] | reduction of secondary sphere formation (HTwist cells; treated during primary sphere formation only) [%]
1 | BMP4: Recombinant BMP4 protein obtained from Stemgent (protein, UniProt P12644 293-408, looked up) Bone morphogenetic protein 4: SPKHHSQRARKKNKNCRRHSLYVDFSDVGWNDWIVAPPGYQAFYCHGDCPFPLADHLNSTNHAIVQTLVNSVNSSIPKACCVPTELSAISMLYLDEYDKVVLKNYQEMVVEGCGCR | 64 | 40 | inhibited | inhibited |  | 
2 | SFRP1: Recombinant human SFRP1 protein (R&D Systems), secreted decoy receptor binding canonical and non-canonical Wnt ligands (protein, UniProt Q8N474 32-314, looked up) Secreted frizzled-related …: SEYDYVSFQSDIGPYQSGRFYTKPPQCVDIPADLRLCHNVGYKKMVLPNLLEHETMAEVKQQASSWVPLLNKNCHAGTQVFLCSLFAPVCLDRPIYPCRWLCEAVRDSCEPVMQFFGFYWPEMLKCDKFPEGDVCIAMTPPNATEASKPQGTTVCPPCDNELKSEAIIEHLCASEFALRMKIKEVKKENGDKKIVPKKKKPLKLGPIKKKDLKKLVLYLKNGADCPCHQLDNLSHHFLIMGRKVKSQYLLTAIHKWDKKNKEFKNFMKKMKNHECPTFQSVFK | 40 | 40 | inhibited | inhibited | 50 | 90
